Molecular target: human telomerase reverse transcriptase hTERT (WT) (human) (UniProt O14746)
Assay: sucrose gradient sedimentation

stoichiometry N: 2
Substance: human telomerase reverse transcriptase hTERT (WT) (from UniProt O14746 1-1132) (enzyme)

Source: publication PMC3785136
